Measured values taken from PMC8563757, “NudCL2 is an autophagy receptor that mediates selective autophagic degradation of CP110 at mother centrioles to promote ciliogenesis” (Cell Research, 2021).

Molecular target: T1, His-CP110 (mouse, UniProt Q7TSH4 1-1004)
T1 construct: Full-length mouse CP110 cloned by RT-PCR into pFastBac-HT A (His-tag vector); also called purified His-CP110; source: insect Sf9 cells, Bac-to-Bac baculovirus expression system, purified
T1 sequence (looked up): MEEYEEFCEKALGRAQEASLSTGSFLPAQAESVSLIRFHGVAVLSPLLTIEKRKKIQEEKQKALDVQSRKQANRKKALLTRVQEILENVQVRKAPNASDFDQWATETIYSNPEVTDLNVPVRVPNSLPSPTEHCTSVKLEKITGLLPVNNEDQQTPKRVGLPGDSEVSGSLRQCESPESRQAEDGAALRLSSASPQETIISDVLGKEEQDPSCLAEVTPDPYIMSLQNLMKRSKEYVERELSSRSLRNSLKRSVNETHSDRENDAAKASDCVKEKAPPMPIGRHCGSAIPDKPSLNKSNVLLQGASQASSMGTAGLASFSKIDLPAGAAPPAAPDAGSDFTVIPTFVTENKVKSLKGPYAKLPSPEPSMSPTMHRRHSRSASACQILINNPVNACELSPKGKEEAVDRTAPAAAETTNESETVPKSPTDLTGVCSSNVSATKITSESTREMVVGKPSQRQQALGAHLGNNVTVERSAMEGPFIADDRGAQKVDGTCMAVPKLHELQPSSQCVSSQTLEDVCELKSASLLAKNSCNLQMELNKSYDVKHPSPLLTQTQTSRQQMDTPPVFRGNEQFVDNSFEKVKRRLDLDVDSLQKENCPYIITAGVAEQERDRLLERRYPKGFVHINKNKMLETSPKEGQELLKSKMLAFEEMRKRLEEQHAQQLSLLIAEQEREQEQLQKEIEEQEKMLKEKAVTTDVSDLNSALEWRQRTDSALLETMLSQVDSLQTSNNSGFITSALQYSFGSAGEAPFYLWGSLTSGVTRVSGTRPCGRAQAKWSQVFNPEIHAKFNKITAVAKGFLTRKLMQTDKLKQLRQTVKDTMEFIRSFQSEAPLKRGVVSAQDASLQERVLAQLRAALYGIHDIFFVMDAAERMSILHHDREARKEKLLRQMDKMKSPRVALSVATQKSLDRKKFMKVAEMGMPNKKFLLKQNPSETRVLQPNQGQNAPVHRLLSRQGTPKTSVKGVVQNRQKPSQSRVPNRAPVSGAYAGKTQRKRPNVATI
Assay: pull-down; GST pull-down of two purified proteins, incubated in PBS at 4 °C for 4 h, glutathione-agarose beads 2 h, western blotting
Settings: both partners purified

B1: GST-NudCL2 (natural protein, mouse, UniProt Q9CQ48 1-157, looked up)
chain: MSAPFEERSGVVPCGTPWGQWYQTLEEVFIEVQVPPGTRAQDIQCGLQSRHVALAVGGREILKGKLFDSTIADEGTWTLEDRKMVRIVLTKTKRDAANCWTSLLESEYAADPWVQDQMQRKLTLERFQKENPGFDFSGAEISGNYTKGGPDFSNLEK
notes: Full-length mouse NudCL2 amplified from total cDNA by RT-PCR and cloned into pGEX5X-1; also called purified GST-NudCL2; source: Escherichia coli BL21, purified
binding result: binds
